These results are taken from article PMC12638947.

Assay [1] has as its target FUS-mEmerald (UniProt P35637). The assay is described as follows: tie line gradient analysis (FUS dilute phase concentration by confocal detection in a microfluidic flow cell); mEmerald-tagged FUS; DNAJB6 varied 0-4 µM; FUS dilute phase concentration read after phase separation.
The target of assay [2] is FUS-mEmerald (UniProt P35637).

UniProt P35637, sequence (P35637 whole entry): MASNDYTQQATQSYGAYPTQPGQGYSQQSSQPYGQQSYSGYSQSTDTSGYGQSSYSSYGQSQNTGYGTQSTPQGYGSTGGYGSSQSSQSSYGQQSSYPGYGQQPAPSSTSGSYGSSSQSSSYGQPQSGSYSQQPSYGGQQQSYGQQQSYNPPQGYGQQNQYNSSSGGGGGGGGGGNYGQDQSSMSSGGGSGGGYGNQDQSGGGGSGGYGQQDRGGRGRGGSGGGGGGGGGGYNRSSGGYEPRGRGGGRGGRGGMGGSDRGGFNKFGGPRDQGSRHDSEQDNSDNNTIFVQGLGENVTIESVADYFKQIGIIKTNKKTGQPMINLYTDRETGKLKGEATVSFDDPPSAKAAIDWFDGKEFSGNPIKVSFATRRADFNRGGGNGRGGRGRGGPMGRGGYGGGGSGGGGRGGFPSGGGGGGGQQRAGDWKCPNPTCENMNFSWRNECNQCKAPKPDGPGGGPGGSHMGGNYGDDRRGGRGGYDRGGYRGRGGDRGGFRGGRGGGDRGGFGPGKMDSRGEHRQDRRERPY

As for “purified recombinant human DNAJB6 (from UniProt O75190 1-326) (natural protein)”, the tie line gradient (µM DNAJB6 / µM FUS) with FUS-mEmerald [1] turned out to be 3. In addition, in the assay with FUS-mEmerald [2], the Young's modulus of FUS + DNAJB6 condensates by AFM, 2 h (~31 kPa) to 48 h; FUS-only condensates rise from ~9 kPa to ~25,000 kPa is 40 kPa.
